Article PMC6160459, “Identification of Peptide Mimotope Ligands for Natalizumab” (Scientific Reports, 2018)
Where two headings read alike, the source gives them in different places.

Assays:
[1] = standard dosing, 300 mg by IV infusion every 4 weeks; cited from earlier work
Description: The standard dosing regimen for natalizumab is 300 mg by IV infusion every 4 weeks. […] It has been postulated that high serum concentrations may increase the risk of PML[10],[11]. […] Conversely, low drug concentrations have been associated with a lack of natalizumab efficacy. Multiple enzyme-linked immunosorbent assays (ELISAs) to detect levels of circulating natal ...

[2] = Ntz-01 peptide ELISA of heat exposed natalizumab samples; format: binding; details: 60 °C for 30 m, 1 h or 2 h; particularly for the GSH treated samples; 0.4% serum
Description: Wells of a NeutrAvidin-coated 96-well plate or 8-well strips (Thermo Fisher) were coated with 100 µl of biotinylated peptide at 7.5 µg/ml in molecular grade H2O (GE Healthcare Life Sciences, Logan, UT) for 1 h. Wells were washed five times with TBST. Wells were then blocked with 200 µl of 5% normal goat serum diluted from 10% normal goat serum (Thermo Fisher) in TBS for 1 h. Wells were washed five times with TBST. Antibody was spiked into 2.5% BSA in TBST (2.5% BSA/TBST) or into pooled defibrinated human AB serum (serum; Gemini, Woodland CA) diluted in 2.5% BSA/TBST. The final dilution of serum was 0.4% unless otherwise noted. Wells were incubated with 100 µl of antibody-spiked samples for 1 h and then washed five times with TBST. Bound natalizumab was detected with mouse anti-human IgG4 horse radish peroxidase (anti-IgG4-HRP; Abcam, Cambridge, MA) diluted 1:2000-1:5000 in TBST. Wells were incubated with 100 µl of diluted anti-IgG4-HRP for 30 m and then washed nine times with TBST. Turbo TMB substrate (Thermo Fisher) was added to the wells and allowed to develop for 12–15 m shielded from light. The reaction was stopped with 1 M H2SO4 (Thermo Fisher). Optical density (OD) was read at 450 nm on a Multiskan FC plate reader (Thermo Fisher) and data were analyzed with GraphPad Prism v5 or v7 software (Graphpad Software Inc, La Jolla CA).
Natalizumab was spiked into neat serum. […]

MS patients [3] = details: AFFIRM study; cited from earlier work
Excerpt: Multiple sclerosis (MS) is a leading cause of neurologic disability that affects approximately 400,000 people in the US and 2.5 million worldwide. Natalizumab (marketed as Tysabri) is the top selling biologic drug indicated for MS and has been used to treat 177,800 patients worldwide as of November 2017[2]. […] Natalizumab is a humanized recombinant IgG4 mAb that targets the α4 chain of α4β1 integrin (also known as very late a ...

CD49d+ JeKo-1 cells = experiment: CD49d+ cell based binding assay of heat exposed natalizumab (flow cytometry); details: 60 °C for 30 m, 1 h or 2 h; both GSH and non-GSH treated samples
Description: Natalizumab-spiked samples in serum were diluted 25-fold in 5% FBS/DPBS/0.05% NaN3. CD49d+ JeKo-1 cells were suspended in 5% FBS/DPBS/0.05% NaN3, and 25 µl of suspension (10^5 cells) were added to 25 µl of diluted sample and incubated for 20 m on ice. Washes, secondary incubation, collection, and analysis proceeded as in the CD49d+ Cell Based Peptide Competition Assay protocol.
(§1) Natalizumab was spiked into neat serum. The samples were split in half and 100 mM Glutathione reduced (GSH, Sigma-Aldrich, St. Louis MO) in H2O was added to one set to produce a final concentration of 3 mM GSH. Samples were then incubated overnight at 37 °C to induce arm exchange of IgG4 molecules. For ELISA assays, samples were subsequently diluted 250-fold in 2.5% BSA/TBST to produce a final serum concentration of 0.4%.
(§2) Samples containing GSH treated or non-GSH treated natalizumab in serum were heated at 60 °C for 30 m, 1 h, or 2 h. Control samples were held at 4 °C. For ELISA assays, samples were subsequently diluted 250-fold in 2.5% BSA/TBST to produce a final serum concentration of 0.4%.

[4] = tested on: natalizumab neutralizing anti-Idiotype (anti-Id) Fab fragment; experiment: Anti-Id ELISA of heat exposed natalizumab samples; format: binding; details: 60 °C for 30 m, 1 h or 2 h; GSH or non-GSH treated samples; 0.4% serum
Description: Wells of a Costar 96-well high binding plate were coated with 100 µl of natalizumab neutralizing anti-Idiotype (anti-Id) Fab fragment (Bio-Rad, Hercules CA) in phosphate-buffered saline (PBS; Corning Life Sciences) at 1 µg/ml overnight at 4 °C. The remining protocol proceeded as in peptide ELISA Protocol-1, with the following exceptions. 1) PBS/PBST was used in place of TBS/TBST (except for washes), 2) goat anti-human IgG HRP (Jackson Immunoresearch, West Grove PA) diluted 1:5000 was used as the secondary conjugate, and 3) TMB substrate was allowed to develop for 8–10 m.
as §1, §2

MS patients [5] = details: cited from earlier work
Excerpt: The immunosuppressive activity of natalizumab has been associated with opportunistic infection by John Cunningham (JC) virus which may lead to progressive multifocal leukoencephalopathy (PML), a serious and often-fatal opportunistic brain infection. Approximately 56–58% of MS patients are positive for anti-JC virus antibodies, which puts them at increased risk for developing PML while on natalizumab[5]–[7]. The estimated incidence of PML in patients positive for anti-JC virus antibodies is 3.87 per 1,000 patients after at least 1 month of natalizumab treatment. It increases to 11.1 per 1,000 p ... || The standard dosing regimen for natalizumab is 300 mg by IV infusion every 4 weeks. […] It has been postulated that high serum concentrations may increase the risk of PML[10],[11]. […] Conversely, low drug concentrations have been associated with a lack of natalizumab efficacy. Multiple enzyme-linked immunosorbent assays (ELISAs) to detect levels of circulating natal ...

B1: natalizumab: humanized recombinant IgG4 mAb that targets the α4 chain of α4β1 integrin and a4β7 integrin (antibody, V domains shown)
VH: QVQLVQSGAEVKKPGASVKVSCKASGFNIKDTYIHWVRQAPGQRLEWMGRIDPANGYTKYDPKFQGRVTITADTSASTAYMELSSLRSEDTAVYYCAREGYYGNYGVYAMDYWGQGTLVTVSS
VL: DIQMTQSPSSLSASVGDRVTITCKTSQDINKYMAWYQQTPGKAPRLLIHYTSALQPGIPSRFSGSGSGRDYTFTISSLQPEDIATYYCLQYDNLWTFGQGTKVEIK
Q: Which results are given for B1?
A: variation of serum natalizumab concentrations [1]: over 100 fold; binding with increased heat exposure by Ntz-01 peptide ELISA [2]: Decreased binding; reduction of sustained physical disability relative to placebo (MS patients [3]): 42%; functional cell binding with increased heat exposure (CD49d+ JeKo-1 cells): Decreased cell binding; changes in binding with heat exposure by anti-Id ELISA [4]: Changes in binding with heat exposure were not observed; estimated incidence of PML (MS patients [5]; JC virus antibody positive patients with prior use of immunosuppressants and long-term use of natalizumab (24–48 months)): 11.1 per 1,000 patients; decrease of PML risk (MS patients [5]; extended interval dosing (infusion every 5–12 weeks instead of every 4 weeks)): 94%; estimated incidence of PML (MS patients [5]; patients positive for anti-JC virus antibodies, after at least 1 month of natalizumab treatment): 3.87 per 1,000 patients
